Our source for the Kd values is publication PMC9834408, “The SPOC domain is a phosphoserine binding module that bridges transcription machinery with co- and post-transcriptional regulators” (Nature Communications, 2023).

The target in this assay is 2×S2P CTD diheptapeptide. Kind of assay: fluorescence polarisation; fluorescence anisotropy; 90 nM labelled peptide (Atto-488 on CTD peptides, FAM on NCoR and FMR1 peptides) titrated with increasing concentrations of SPOC domain; 20 °C; 25 mM Tris-Cl pH 7.4, 25 mM NaCl, 1 mM DTT; three independent dilution series. For orientation: Polarisation of emitted light reports the rotation of a fluorescent probe.

B1: DIDO SPOC R1096A (domain or fragment)
chain: TLFLSRLSTIWKGFINMQSVAKFVTKAYPVSGCFDYLSEDLPDTIHIGGAIAPKTVWDYVGKLKSSVSKELCLIRFHPATEEEEVAYISLYSYFSSRGRFGVVANNNRHVKDLYLIPLSAQDPVPSKLLPFEGPGLESPRPNIILGLVICQKIKRPANS
Usually Kd stands for the free concentration of one partner at which half of the binding sites on the other are occupied at equilibrium, for simple one-to-one binding. A lower Kd goes with a tighter complex. B1 had a Kd of 22.4 µM.

B2: PHF3 SPOC R1248A (domain or fragment)
chain: STFLARLNFIWKGFINMPSVAKFVTKAYPVSGSPEYLTEDLPDSIQVGGAISPQTVWDYVEKIKASGTKEICVVRFTPVTEEDQISYTLLFAYFSSRKRYGVAANNMKQVKDMYLIPLGATDKIPHPLVPFDGPGLELHRPNLLLGLIIRQKLKRQHS
B2 displayed a Kd of 8.4 µM. Against the preceding molecule, the Kd is about 2.7-fold lower.
